Measurements from the supplement of paper PMC9170038.

System: MS2 coat protein
Assay: apparent KD of MS2 coat protein; designed switch direction (-1 OFF switch, 1 ON switch): -1; higher = weaker reporter binding
Method in brief: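 Designed RNA switches with common flanks were made on Illumina chips by stalled E. coli RNA polymerase. Titration with SNAP-549-labelled MS2 coat protein doubled from 0.7 or 1.5 nM up to 3 µM. Apparent KD is each design's median over clusters after curve-fitting normalised fluorescence.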

[1] = Eterna round: R95, input ligand: microRNA oligo, concentration not stated
[2] = input ligand: microRNA oligo, concentration not stated
[3] = Eterna round: R95, input ligand: FMN 200 uM
[4] = Eterna round: R95, input ligand: none

Row | Sequence | apparent KD of MS2 coat protein (input ligand: FMN 200 uM) [nM] | apparent KD of MS2 coat protein (input ligand: none) [nM] | apparent KD of MS2 coat protein [1] [nM] | apparent KD of MS2 coat protein [2] [nM] | apparent KD of MS2 coat protein [3] [nM] | apparent KD of MS2 coat protein [4] [nM]
1 | UAUUAGCAAGCGAGAUCCCACAUGAGGAUCACCCAUGUGCUCGUCUUAUAAAGUACUGUGACGAAAGUCACGGUACG [Mat - Sensor, turn-off var - Eli Mod - D10] (Eterna round: R97, puzzle: Sensor, turn-off variant 1) | 15.1 | 14.6 | – | – | – | –
2 | AUAAAGCAAGGAUAUACAUGAGGAUCACCCAUGUAUGAAAGUUGGCCGCGGUUUAGAUGUAGAAGGUGCAAGGG [EX3 B.8] (Eterna round: R97, puzzle: Exclusion 3) | 27.6 | 28.1 | – | – | – | –
3 | GACUGUCGAGAGGAUAUCUUUCCCAAGCGGGUCAGAGAAGGCUUGACAUGAGGAUCACCCAUGUUGAUUGCUAG [EX6 C.23] (Eterna round: R97, puzzle: Exclusion 6) | 389 | 140 | – | – | – | –
4 | ACUUAUAGAGGAUAUACAGAAUAUUACAUGAGGAUCACCCAUGUUCUUCAAUGUAUAUAUGUAGAAGGCUAAGGUU [Mat - Exclusion 5 - JL Mod - D7] (Eterna round: R97, puzzle: Exclusion 5) | 286 | 131 | – | – | – | –
5 | CCGUGGCAAGGAUAUACGUAGGAGAGGAAGGCAAGAGAAGGACAUGAGGAUCACCCAUGUAGAAGGUGCAGAUC [JR_Exclu2_Sub030] (puzzle: Exclusion 2) | – | – | 48.3 | – | – | –
6 | UUAUUAUAUGUAGGAUAUGCAUAUUGUUGUUAUGCAGAAGGACAUGAGGAUCACCCAUGUAUAUUGUUGUUAUAUAUUAUAUAU [Title] (Eterna round: R96, puzzle: Exclusion NG 1) | 27.1 | 22.3 | – | 18.6 | – | –
7 | AGUUGGCGAGGAUAUACAUGAGGAUCACCCAUGUAUGAGAUAAAAGUGAGGUAAAUAUGUAGAAGGCGCUGACA [JR_Ex3_Sub078] (Eterna round: R97, puzzle: Exclusion 3) | 897 | 107 | – | – | – | –
8 | GUUACACAUGAGGAUCACCCAUGUGAGGAUAUGGAUUCGUUAGAAGUAGAAGAUGGAUCCAGAAGGCGCGUGAG [JR_Ex1_Sub079] (Eterna round: R97, puzzle: Exclusion 1) | 160 | 62.7 | – | – | – | –
9 | CUUUUGUGAGGAUAUUAGUAGUAAAUAAAUAAAAUUACUACUUAGAAGGCACAUGAGGAUCACCCAUGUUCCUC [salish99_ex4_r3_043] (Eterna round: R96, puzzle: Exclusion 4) | 238 | 29.6 | – | 25.8 | – | –
10 | CAGUACUGAGGAUAUACAUGAGGAUCACCCAUGUGAAAAAGCUACGAAAGUAGCAAAUGUAGAAGGCAGUACUG [Ex3: 806] (Eterna round: R96, puzzle: Exclusion 3) | – | – | – | 29.9 | – | –
11 | UGUACUAUGCGAGCUGACUUGCGUAGUGCAGCAGGUGGAACAUGAGGAUCACCCAUGUCCUCAUUUGCUCGUCUUAU [SL-sv3-2.03 JL mod] (puzzle: Sensor v3, turn-off variant 2) | – | – | 143 | – | 39 | 41.2
12 | CCGAGGUAGCGGUCCUAUGACAUGAGGAUCACCCAUGUACCUCGCUACGAGCUUUUUGCUCGUCAUAUAAUUCUCGG [Mat - Sensor v3 - turn-off var 1 - JL Mod - D30] (Eterna round: R96, puzzle: Sensor v3, turn-off variant 1) | 56.8 | 61.3 | – | 49.7 | – | –
13 | GCGAAAACAAACAGGUGAAACAUGAGGAUCACCCAUGUCCUCAUUUGCUCGUCUUAUAAGCUAUGCGAAAGCAUAGC [Mat - Sensor v3 - turn-off var 1 - Eli Mod - D55] (puzzle: Sensor v3, turn-off variant 1) | – | – | 200 | – | 283 | 348
14 | GUUGAUGUAGGAUAUACAUGAGGAUCACCCAUGUUGGUGCCCUAACCUAUUGGUGUACGUAGAAGGGCGGACUC [Eternabot (L2) Solution 96] (Eterna round: R97, puzzle: Exclusion 3) | 103 | 95.2 | – | – | – | –
15 | GGAUCGAAUGUGAGGAUAUACCUAUGGAAACAUAGGUAGAAGGCACAUGAGGAUCACCCAUGUCCAAACGGUCC [Mat - Exclusion 4 - Eli Mod - D13] (Eterna round: R97, puzzle: Brourd's mod of Exclusion 4) | 1050 | 225 | – | – | – | –
16 | ACAAGCUUAAUCUGUAUGAACAUGAGGAUCACCCAUGUAUAAGGGAAUUCUUUUGGGUUUUUUAUAGCUCGUCUUAU [JR_STOV1_Sub020] (Eterna round: R97, puzzle: Sensor, turn-off variant 1) | 280 | 337 | – | – | – | –
17 | AUUAAUUGUCAGAUGGGUGACAUGAGGAUCACCCAUGUCACAAGCUUUUUGUUCGUCUUAUAAUUAACCCAUCUGAC [Stov1/11-B2] (Eterna round: R97, puzzle: Sensor, turn-off variant 1) | 13.8 | 14.4 | – | – | – | –
18 | AGGGAUAAAGGAUAUACAUGAGGAUCACCCAUGUUGAGGAAGGUUAGAUGAGGAGUAAGUAGAAGGUUAGACGA [JR_Exclu3_Sub088] (puzzle: Exclusion 3) | – | – | 40.7 | – | 45.7 | 61.3
19 | AAGAAACAUGAGGAUCACCCAUGUGAGGAUAUGAAAAAGAAAAUAAAAUAAAUAAGAAUCAGAAGGCACAAAGG [Mat - Mod of Hog D5] (puzzle: Exclusion 1) | – | – | 45.5 | – | 40.6 | 40.2
20 | UUAGAUUGAGGAUAUACAUGAGGAUCACCCAUGUCGAUACCAAUGGUGUUGACCGUCAGUAGAAGGCGAAUUGA [Eternabot (L1) Solution 87] (Eterna round: R97, puzzle: Exclusion 3) | 163 | 123 | – | – | – | –
21 | AGGUGCUUCUGGAAACAUGAGGAUCACCCAUGUUGAGUUAGCGAGGAUAUCGGUAACCAUUGUUAUGAGAAGGCGCAAACCAGA [Ex NG3 #37] (Eterna round: R96, puzzle: Exclusion NG 3) | 19.9 | 20.2 | – | 11.4 | – | –
22 | UAUUAGCAAGCGAGAUCCCACAUGAGGAUCACCCAUGUAAGCAUCCAGAAUUACUGGGUGCAAAAGCUCGUCUUAUA [Winner reversed engineered 5] (Eterna round: R97, puzzle: Sensor, turn-off variant 1) | 29.7 | 31 | – | – | – | –
23 | GAACAGGUAGGAUAUACUGGACGCGACAUGAGGAUCACCCAUGUCCUCGGCAUAGGCGCUGUAGAAGGGCCUAAAA [Eternabot (Original) Solution 29] (Eterna round: R97, puzzle: Exclusion 5) | 29.9 | 30.2 | – | – | – | –
24 | ACAUGAGGAUCACCCAUGUCUGGCUGGUCCGUCUCGGCUGUCGAGGAUAUGGCUCGGUGUCCGCGCUAGAAGGCGGGAGCUGGA [Aenatbe mod 78] (Eterna round: R96, puzzle: Exclusion NG 3) | 193 | 68.2 | – | 43 | – | –
25 | CUCAUGUGAGGAUAUGUGAUCAACCUUCUAUAUAGAUGAUUACAGAAGGCACAUGAGGAUCACCCAUGUAGAUC [Ex4 - 3 - 23] (puzzle: Exclusion 4) | – | – | 21.1 | – | – | –
26 | ACUAGCUUUUUGCAUAGUAGGUUUGGUGCUUCGUAUGCUACAUGAGGAUCACCCAUGUAUUACUGAUUUCGUCGUUU [JR_SV3TOV2_Sub093] (puzzle: Sensor v3, turn-off variant 2) | – | – | 41.1 | – | 24.6 | 27.3
27 | GUUGGUAAGUCAGGAUAUCCCUGUAAUGGCAGCGGAGAAGGGACAUGAGGAUCACCCAUGUGAACCUCCGGCGGAUAAACCCGC [Ancelave] (Eterna round: R96, puzzle: Exclusion NG 1) | 111 | 23.6 | – | 29.5 | – | –
28 | UAUUAGCAAGUAAGGUCCCACAUGAGGAUCACCCAUGUGCUCGUCUCCUCAGGUACGGAGUGGAAACUCCCGAUAUG [Sensor-V1 #93] (Eterna round: R97, puzzle: Sensor, turn-off variant 1) | 84.7 | 76 | – | – | – | –
29 | UUCCAACAUGAGGAUCACCCAUGUCAGGAUAUGCGACCUCCACCACCAACCUCACCUCGCAGAAGGGACACACC [Mod-Cyanosaur/default-title] (Eterna round: R97, puzzle: Exclusion 1) | 24.2 | 23.7 | – | – | – | –
30 | AUUAUAUAGAUAGGAUAUAGAAUAUUAUUUUAACAUGAGGAUCACCCAUGUAACCUUAUGUGUAGCUAGAAGGAUCAUUUAUUA [Title] (Eterna round: R96, puzzle: Exclusion NG 2) | – | – | – | 69.5 | – | –
